Laboratory results: US20220298214A1

Molecular target: GLP-1 receptor (UniProt P43220)
Experiment: cell-based or functional assay

Chain of GLP-1 receptor (P43220 24-463 limits assumed): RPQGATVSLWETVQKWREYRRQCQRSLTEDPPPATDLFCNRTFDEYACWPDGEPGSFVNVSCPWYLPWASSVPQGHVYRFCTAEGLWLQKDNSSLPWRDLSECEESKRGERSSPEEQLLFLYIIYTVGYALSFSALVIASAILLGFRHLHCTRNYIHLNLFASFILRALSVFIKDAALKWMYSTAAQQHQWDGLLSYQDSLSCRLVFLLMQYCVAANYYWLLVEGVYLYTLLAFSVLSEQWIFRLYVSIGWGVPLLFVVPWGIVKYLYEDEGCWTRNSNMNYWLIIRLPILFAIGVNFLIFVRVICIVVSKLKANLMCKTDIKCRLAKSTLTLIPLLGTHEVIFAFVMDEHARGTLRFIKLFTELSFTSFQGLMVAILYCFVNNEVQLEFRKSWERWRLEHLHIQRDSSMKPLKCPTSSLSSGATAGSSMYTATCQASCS

Substance: Dulaglutide (Fc fusion)
- EC50 value (pM), luciferase reporter gene (CRE-Luc) in HEK293-GLP1R-CRE-Luc cells: 41.2 pM
